Data: paper PMC7818446, “Enzymology of the pathway for ATP production by arginine breakdown” (The Febs Journal, 2020)
One block for each molecule: values may come before it.

What was measured:
[1] = target: T1, ArcA (arginine deiminase, ADI) (Lactococcus lactis, UniProt P58013); experiment: citrulline formation, COLDER assay (A540); Michaelis-Menten with uncompetitive substrate inhibition; assay type: biochemical; conditions: 3.2 nM ArcA, 50 mM KPi pH 7.0, 30 °C, n = 1
T1 construct: expressed in L. lactis NZ9000; tetramer (194 kDa)
T1 sequence (P58013 1-410): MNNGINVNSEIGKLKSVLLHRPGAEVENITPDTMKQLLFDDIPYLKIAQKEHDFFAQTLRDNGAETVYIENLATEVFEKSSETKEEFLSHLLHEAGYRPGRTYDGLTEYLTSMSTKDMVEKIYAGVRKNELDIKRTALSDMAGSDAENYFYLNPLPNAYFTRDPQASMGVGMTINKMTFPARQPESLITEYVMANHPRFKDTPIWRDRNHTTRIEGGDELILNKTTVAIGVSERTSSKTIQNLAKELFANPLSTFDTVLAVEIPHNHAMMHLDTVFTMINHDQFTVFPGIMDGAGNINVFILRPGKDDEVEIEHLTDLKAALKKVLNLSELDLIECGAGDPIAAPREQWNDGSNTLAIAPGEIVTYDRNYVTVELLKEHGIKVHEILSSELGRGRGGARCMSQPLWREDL

[2] = target: T2, ArcB (ornithine transcarbamoylase, OTC) (Lactococcus lactis, UniProt P0C2U0); experiment: citrulline formation, COLDER assay (A540); assay type: biochemical; conditions: read-out: % inhibition at 10 mM
T2 construct: expressed in L. lactis NZ9000; hexamer (245 kDa)
T2 sequence (P0C2U0 1-354): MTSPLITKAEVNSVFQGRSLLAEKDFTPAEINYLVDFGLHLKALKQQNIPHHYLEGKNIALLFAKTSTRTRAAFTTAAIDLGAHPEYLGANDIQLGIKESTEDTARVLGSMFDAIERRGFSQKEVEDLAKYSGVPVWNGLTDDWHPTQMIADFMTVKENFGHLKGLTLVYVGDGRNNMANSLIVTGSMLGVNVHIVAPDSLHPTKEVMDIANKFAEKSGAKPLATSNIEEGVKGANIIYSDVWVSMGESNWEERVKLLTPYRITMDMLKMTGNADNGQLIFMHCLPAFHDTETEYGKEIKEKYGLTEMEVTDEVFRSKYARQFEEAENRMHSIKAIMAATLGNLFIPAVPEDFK

[3] = target: T1, ArcA (arginine deiminase, ADI); experiment: citrulline formation, COLDER assay (A540); assay type: biochemical; conditions: read-out: % inhibition at 10 mM
[4] = target: T2, ArcB (ornithine transcarbamoylase, OTC); experiment: citrulline formation, COLDER assay (A540); assay type: biochemical; conditions: citrulline-forming direction; 5 mM carbamoyl-Pi; 50 mM KPi pH 7.0; 30 °C
[5] = target: T3, ArcC1 (carbamate kinase, CK) (Lactococcus lactis, UniProt Q9CE16); experiment: ATP formation by ATPlite luminescence; assay type: biochemical; conditions: 5 mM carbamoyl-Pi, 5 mM Mg-ADP; 50 mM KPi pH 7.0; 30 °C
T3 construct: expressed in L. lactis NZ9000; dimer (73 kDa)
T3 sequence (Q9CE16 1-314): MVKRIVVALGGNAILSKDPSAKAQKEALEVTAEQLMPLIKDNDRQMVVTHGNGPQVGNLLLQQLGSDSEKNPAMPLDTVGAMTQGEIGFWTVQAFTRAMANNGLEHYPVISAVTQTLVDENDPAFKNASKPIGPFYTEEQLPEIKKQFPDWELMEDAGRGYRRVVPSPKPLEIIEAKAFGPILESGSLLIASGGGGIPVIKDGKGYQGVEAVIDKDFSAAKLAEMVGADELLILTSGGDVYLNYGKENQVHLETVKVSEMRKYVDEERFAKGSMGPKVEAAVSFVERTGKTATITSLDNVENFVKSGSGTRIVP

[6] = target: T3, ArcC1 (carbamate kinase, CK); experiment: ATP formation by ATPlite luminescence; assay type: biochemical; conditions: read-out: % inhibition at 10 mM
[7] = substrate: NC(=O)OP(=O)(O)O; experiment: citrulline formation, COLDER assay (A540); assay type: biochemical, Lactococcus lactis; conditions: citrulline-forming direction, 5 mM ornithine, 50 mM KPi pH 7.0, 30 °C
[8] = substrate: N=C(N)NCCC[C@H](N)C(=O)O; experiment: citrulline formation, COLDER assay (A540); assay type: biochemical, Lactococcus lactis; conditions: 50 mM KPi pH 7.0, 30 °C, 42 nM ArcA, arginine up to 480 µM
[9] = substrate: NC(=O)OP(=O)(O)O; experiment: ATP/ADP ratio by PercevalHR fluorescence, pH-corrected with pyranine; assay type: biochemical, Lactococcus lactis; conditions: 5 mM Mg-ADP, 50 mM KPi pH 7.0, 30 °C
[10] = substrate: Nc1ncnc2c1ncn2[C@@H]1O[C@H](COP(=O)(O)OP(=O)(O)O)[C@@H](O)[C@H]1O; experiment: as above; assay type: biochemical, Lactococcus lactis; conditions: 5 mM carbamoyl-Pi, 50 mM KPi pH 7.0, 30 °C
purified protein [11] = substrate: NCCC[C@H](N)C(=O)O; experiment: purified protein; conditions: internal ornithine as counter-substrate, 25 µM external arginine, 50 mM KPi pH 7.0, 30 °C
purified protein [12] = substrate: N=C(N)NCCC[C@H](N)C(=O)O; experiment: purified protein; assay type: biochemical, Lactococcus lactis; conditions: external arginine, 10 mM internal ornithine, DOPE:DOPG:DOPC 50:38:12, 50 mM KPi pH 7.0, 30 °C, labelled compound
purified protein [13] = substrate: NC(=O)NCCC[C@H](N)C(=O)O; experiment: purified protein; assay type: biochemical, Lactococcus lactis; conditions: internal citrulline as counter-substrate, 25 µM external arginine, membrane potential −120 mV (valinomycin), pH 7.0, 30 °C

Molecule: N=C(N)NCCC[C@H](N)C(=O)O [L-arginine]
K I [1]: 3.2 ± 0.4 mM | inhibition at 10000 µM [2]: 25%

inhibition at 10000 µM [3]: 30% | Km [4]: 700 ± 200 µM | % inhibition [5]: ornithine was slightly inhibitory
Molecule: NCCC[C@H](N)C(=O)O [L-ornithine]

inhibition at 10000 µM [6]: 40 to 50%
Molecule: NC(=O)NCCC[C@H](N)C(=O)O [L-citrulline]

B1: ArcB (ornithine transcarbamoylase, OTC) (Lactococcus lactis subsp. lactis Il1403) (protein)
chain: MTSPLITKAEVNSVFQGRSLLAEKDFTPAEINYLVDFGLHLKALKQQNIPHHYLEGKNIALLFAKTSTRTRAAFTTAAIDLGAHPEYLGANDIQLGIKESTEDTARVLGSMFDAIERRGFSQKEVEDLAKYSGVPVWNGLTDDWHPTQMIADFMTVKENFGHLKGLTLVYVGDGRNNMANSLIVTGSMLGVNVHIVAPDSLHPTKEVMDIANKFAEKSGAKPLATSNIEEGVKGANIIYSDVWVSMGESNWEERVKLLTPYRITMDMLKMTGNADNGQLIFMHCLPAFHDTETEYGKEIKEKYGLTEMEVTDEVFRSKYARQFEEAENRMHSIKAIMAATLGNLFIPAVPEDFK
notes: expressed in L. lactis NZ9000; hexamer (245 kDa)
Km [7]: 2700 ± 400 µM | kcat [7]: 565 ± 45 s⁻¹

B2: ArcA (arginine deiminase, ADI) (Lactococcus lactis subsp. lactis Il1403) (protein)
chain: MNNGINVNSEIGKLKSVLLHRPGAEVENITPDTMKQLLFDDIPYLKIAQKEHDFFAQTLRDNGAETVYIENLATEVFEKSSETKEEFLSHLLHEAGYRPGRTYDGLTEYLTSMSTKDMVEKIYAGVRKNELDIKRTALSDMAGSDAENYFYLNPLPNAYFTRDPQASMGVGMTINKMTFPARQPESLITEYVMANHPRFKDTPIWRDRNHTTRIEGGDELILNKTTVAIGVSERTSSKTIQNLAKELFANPLSTFDTVLAVEIPHNHAMMHLDTVFTMINHDQFTVFPGIMDGAGNINVFILRPGKDDEVEIEHLTDLKAALKKVLNLSELDLIECGAGDPIAAPREQWNDGSNTLAIAPGEIVTYDRNYVTVELLKEHGIKVHEILSSELGRGRGGARCMSQPLWREDL
notes: expressed in L. lactis NZ9000; tetramer (194 kDa)
Km [8]: 34.5 ± 6.6 µM | kcat [8]: 3.3 ± 0.2 s⁻¹

B3: ArcC1 (carbamate kinase, CK) (Lactococcus lactis subsp. lactis Il1403) (protein)
chain: MVKRIVVALGGNAILSKDPSAKAQKEALEVTAEQLMPLIKDNDRQMVVTHGNGPQVGNLLLQQLGSDSEKNPAMPLDTVGAMTQGEIGFWTVQAFTRAMANNGLEHYPVISAVTQTLVDENDPAFKNASKPIGPFYTEEQLPEIKKQFPDWELMEDAGRGYRRVVPSPKPLEIIEAKAFGPILESGSLLIASGGGGIPVIKDGKGYQGVEAVIDKDFSAAKLAEMVGADELLILTSGGDVYLNYGKENQVHLETVKVSEMRKYVDEERFAKGSMGPKVEAAVSFVERTGKTATITSLDNVENFVKSGSGTRIVP
notes: expressed in L. lactis NZ9000; dimer (73 kDa)
Km [9]: 600 ± 200 µM | kcat [9]: 200 ± 20 s⁻¹ | Km [10]: 1600 ± 700 µM | kcat [10]: 190 ± 15 s⁻¹

B4: ArcD2 (arginine/ornithine antiporter, AOA) (Lactococcus lactis subsp. lactis Il1403) (protein)
chain: MENKKTKGISLFALLAIIISGAIGGGVFNLANDLANGSTPGGVMISWLFIGFGIFMLVLSFNRLITIRPKLSGVSDYAREGFGDFIGFLSGWGYWISAWTGTIGFAVLMMTSADYFFPSKFANSNGSLTVLSVIIVSIISWILMFLVDRGVETAALVNAVVMIAKLIPLVVFSITGIILFKADVFTQHFWQTFTSNLAADGSVKSLVWHAMTAGGLLDQIKGSLMVMVWVFVGIEGAAMMGNRAKKKSDTAKATIIGLAVLLVIYVLLSLLPYGYMDQASLANVKAPGLVYILNEMVGGWGGSLMAIGLMISLLGAWLSWTMLPVEATQQLAEKKLLPSWFGKLNKYHAPSNSLLITQLMIQIFIIITYFVANAYNVFIYMATAVIMICYALVGAYLLKIGIKEGSIKNILIGFFTFAFQALALYLSGWQYVWLAMILYTIGFILFIKAKKESRQAISVKEWAGMFIVALLGVLAILVLICGAKSGTALDLRGLLGY
notes: expressed in L. lactis JP9000; reconstituted in proteoliposomes; monomer (53 kDa) in DDM
Km (purified protein [11]): 2500 ± 700 µM | kcat (purified protein [11]): 0.09 ± 0.009 s⁻¹ | Km (purified protein [12]): 6.0 ± 0.7 µM | kcat (purified protein [12]): 0.11 ± 0.005 s⁻¹ | Km (purified protein [13]): 6000 ± 2100 µM
